In article PMC9582194, “The effect of helix-inducing constraints and downsizing upon a transcription block survival-derived functional cJun antagonist” (Cell Reports. Physical Science, 2022):
Positions of bridges follow the written chain, without caps; N, C: chain ends.

B1: HW15 (peptide)
peptide: Ac-EAEELVVEEDVLEEEIEQLEEKNKALKDEIEDLY-NH2
modifications: lactam 24-28
SMILES: CC[C@H](C)[C@H](NC(=O)[C@H](CCC(=O)O)NC(=O)[C@@H]1CC(=O)NCCCC[C@H](NC(=O)[C@H](CC(N)=O)NC(=O)[C@H](CCCCN)NC(=O)[C@H](CCC(=O)O)NC(=O)[C@H](CCC(=O)O)NC(=O)[C@H](CC(C)C)NC(=O)[C@H](CCC(N)=O)NC(=O)[C@H](CCC(=O)O)NC(=O)[C@@H](NC(=O)[C@H](CCC(=O)O)NC(=O)[C@H](CCC(=O)O)NC(=O)[C@H](CCC(=O)O)NC(=O)[C@H](CC(C)C)NC(=O)[C@@H](NC(=O)[C@H](CC(=O)O)NC(=O)[C@H](CCC(=O)O)NC(=O)[C@H](CCC(=O)O)NC(=O)[C@@H](NC(=O)[C@@H](NC(=O)[C@H](CC(C)C)NC(=O)[C@H](CCC(=O)O)NC(=O)[C@H](CCC(=O)O)NC(=O)[C@H](C)NC(=O)[C@H](CCC(=O)O)NC(C)=O)C(C)C)C(C)C)C(C)C)[C@@H](C)CC)C(=O)N[C@@H](C)C(=O)N[C@@H](CC(C)C)C(=O)N[C@@H](CCCCN)C(=O)N1)C(=O)N[C@@H](CCC(=O)O)C(=O)N[C@@H](CC(=O)O)C(=O)N[C@@H](CC(C)C)C(=O)N[C@@H](Cc1ccc(O)cc1)C(N)=O
notes: cyclized form of the pair HW14/HW15; NΔ20 CΔ10; source: synthetic peptide (Fmoc SPPS, on-resin lactamization, RP-HPLC purified)
B2: HW2 (peptide)
peptide: Ac-LARENEELEKEAEELVVEEDVLEEEIEQLEERNYALRKEIEDLQKQLEKL-NH2
notes: truncation NΔ10 CΔ3 of HW1; source: synthetic peptide (Fmoc SPPS, RP-HPLC purified)
B3: HW20 (peptide)
peptide: Ac-EAKELVDEEDVLEEEIEQLEERNYALRKEIEDLQKQ-NH2
notes: linear form of the pair HW20/HW21; NΔ20 CΔ7; source: synthetic peptide (Fmoc SPPS, RP-HPLC purified)
B4: HW22 (peptide)
peptide: Ac-EAEELVVEEKVLEDEIEQLEERNYALRKEIEDLQKQ-NH2
notes: linear form of the pair HW22/HW23; NΔ20 CΔ7; source: synthetic peptide (Fmoc SPPS, RP-HPLC purified)
B5: HW21 (peptide)
peptide: Ac-EAKELVDEEDVLEEEIEQLEERNYALRKEIEDLQKQ-NH2
modifications: lactam 3-7
SMILES: CC[C@H](C)[C@H](NC(=O)[C@H](CCC(=O)O)NC(=O)[C@H](CCCCN)NC(=O)[C@H](CCCNC(=N)N)NC(=O)[C@H](CC(C)C)NC(=O)[C@H](C)NC(=O)[C@H](Cc1ccc(O)cc1)NC(=O)[C@H](CC(N)=O)NC(=O)[C@H](CCCNC(=N)N)NC(=O)[C@H](CCC(=O)O)NC(=O)[C@H](CCC(=O)O)NC(=O)[C@H](CC(C)C)NC(=O)[C@H](CCC(N)=O)NC(=O)[C@H](CCC(=O)O)NC(=O)[C@@H](NC(=O)[C@H](CCC(=O)O)NC(=O)[C@H](CCC(=O)O)NC(=O)[C@H](CCC(=O)O)NC(=O)[C@H](CC(C)C)NC(=O)[C@@H](NC(=O)[C@H](CC(=O)O)NC(=O)[C@H](CCC(=O)O)NC(=O)[C@H](CCC(=O)O)NC(=O)[C@@H]1CC(=O)NCCCC[C@H](NC(=O)[C@H](C)NC(=O)[C@H](CCC(=O)O)NC(C)=O)C(=O)N[C@@H](CCC(=O)O)C(=O)N[C@@H](CC(C)C)C(=O)N[C@@H](C(C)C)C(=O)N1)C(C)C)[C@@H](C)CC)C(=O)N[C@@H](CCC(=O)O)C(=O)N[C@@H](CC(=O)O)C(=O)N[C@@H](CC(C)C)C(=O)N[C@@H](CCC(N)=O)C(=O)N[C@@H](CCCCN)C(=O)N[C@@H](CCC(N)=O)C(N)=O
notes: cyclized form of the pair HW20/HW21; NΔ20 CΔ7; source: synthetic peptide (Fmoc SPPS, on-resin lactamization, RP-HPLC purified)
B6: HW28 (peptide)
peptide: Ac-EAEELVVEEDVLEEEIEQLEERNYALRKEIKDLQDQ-NH2
notes: linear form of the pair HW28/HW29; NΔ20 CΔ7; source: synthetic peptide (Fmoc SPPS, RP-HPLC purified)
B7: HW25 (peptide)
peptide: Ac-EAEELVVEEDVLEEEIKQLEDRNYALRKEIEDLQKQ-NH2
modifications: lactam 17-21
SMILES: CC[C@H](C)[C@H](NC(=O)[C@H](CCC(=O)O)NC(=O)[C@H](CCCCN)NC(=O)[C@H](CCCNC(=N)N)NC(=O)[C@H](CC(C)C)NC(=O)[C@H](C)NC(=O)[C@H](Cc1ccc(O)cc1)NC(=O)[C@H](CC(N)=O)NC(=O)[C@H](CCCNC(=N)N)NC(=O)[C@@H]1CC(=O)NCCCC[C@H](NC(=O)[C@@H](NC(=O)[C@H](CCC(=O)O)NC(=O)[C@H](CCC(=O)O)NC(=O)[C@H](CCC(=O)O)NC(=O)[C@H](CC(C)C)NC(=O)[C@@H](NC(=O)[C@H](CC(=O)O)NC(=O)[C@H](CCC(=O)O)NC(=O)[C@H](CCC(=O)O)NC(=O)[C@@H](NC(=O)[C@@H](NC(=O)[C@H](CC(C)C)NC(=O)[C@H](CCC(=O)O)NC(=O)[C@H](CCC(=O)O)NC(=O)[C@H](C)NC(=O)[C@H](CCC(=O)O)NC(C)=O)C(C)C)C(C)C)C(C)C)[C@@H](C)CC)C(=O)N[C@@H](CCC(N)=O)C(=O)N[C@@H](CC(C)C)C(=O)N[C@@H](CCC(=O)O)C(=O)N1)C(=O)N[C@@H](CCC(=O)O)C(=O)N[C@@H](CC(=O)O)C(=O)N[C@@H](CC(C)C)C(=O)N[C@@H](CCC(N)=O)C(=O)N[C@@H](CCCCN)C(=O)N[C@@H](CCC(N)=O)C(N)=O
notes: cyclized form of the pair HW24/HW25; NΔ20 CΔ7; source: synthetic peptide (Fmoc SPPS, on-resin lactamization, RP-HPLC purified)
B8: HW24 (peptide)
peptide: Ac-EAEELVVEEDVLEEEIKQLEDRNYALRKEIEDLQKQ-NH2
notes: linear form of the pair HW24/HW25; NΔ20 CΔ7; source: synthetic peptide (Fmoc SPPS, RP-HPLC purified)
B9: HW26 (peptide)
peptide: Ac-EAEELVVEEDVLEEEIEQLEEKNKALKDEIEDLQKQY-NH2
notes: linear form of the pair HW26/HW27; NΔ20 CΔ7; source: synthetic peptide (Fmoc SPPS, RP-HPLC purified)
B10: HW19 (peptide)
peptide: Ac-KEAEDLVVEEDVLEEEIEQLEERNYALRKEIKDLQDQ-NH2
modifications: lactam 1-5
notes: cyclized form of the pair HW18/HW19; NΔ19 CΔ7; source: synthetic peptide (Fmoc SPPS, on-resin lactamization, RP-HPLC purified)
B11: HW12 (peptide)
peptide: Ac-LVVEEDVLEEEIEQLEERNYALRKEIEDLQKQLEDL-NH2
notes: linear form of the pair HW12/HW13; NΔ24 CΔ3; source: synthetic peptide (Fmoc SPPS, split batch, RP-HPLC purified)
B12: HW11 (peptide)
peptide: Ac-LVVEEDVLEEEIEQLEEKNKALKDEIEDLQKQLEKLY-NH2
modifications: lactam 20-24
SMILES: CC[C@H](C)[C@H](NC(=O)[C@H](CCC(=O)O)NC(=O)[C@@H]1CC(=O)NCCCC[C@H](NC(=O)[C@H](CC(N)=O)NC(=O)[C@H](CCCCN)NC(=O)[C@H](CCC(=O)O)NC(=O)[C@H](CCC(=O)O)NC(=O)[C@H](CC(C)C)NC(=O)[C@H](CCC(N)=O)NC(=O)[C@H](CCC(=O)O)NC(=O)[C@@H](NC(=O)[C@H](CCC(=O)O)NC(=O)[C@H](CCC(=O)O)NC(=O)[C@H](CCC(=O)O)NC(=O)[C@H](CC(C)C)NC(=O)[C@@H](NC(=O)[C@H](CC(=O)O)NC(=O)[C@H](CCC(=O)O)NC(=O)[C@H](CCC(=O)O)NC(=O)[C@@H](NC(=O)[C@@H](NC(=O)[C@H](CC(C)C)NC(C)=O)C(C)C)C(C)C)C(C)C)[C@@H](C)CC)C(=O)N[C@@H](C)C(=O)N[C@@H](CC(C)C)C(=O)N[C@@H](CCCCN)C(=O)N1)C(=O)N[C@@H](CCC(=O)O)C(=O)N[C@@H](CC(=O)O)C(=O)N[C@@H](CC(C)C)C(=O)N[C@@H](CCC(N)=O)C(=O)N[C@@H](CCCCN)C(=O)N[C@@H](CCC(N)=O)C(=O)N[C@@H](CC(C)C)C(=O)N[C@@H](CCC(=O)O)C(=O)N[C@@H](CCCCN)C(=O)N[C@@H](CC(C)C)C(=O)N[C@@H](Cc1ccc(O)cc1)C(N)=O
notes: cyclized form of the pair HW10/HW11; NΔ24 CΔ3; source: synthetic peptide (Fmoc SPPS, on-resin lactamization, RP-HPLC purified)
B13: HW16 (peptide)
peptide: Ac-EAEELVVEEDVLEEEIEQLEERNYALRKEIEDLQ-NH2
notes: linear form of the pair HW16/HW17; NΔ20 CΔ9; source: synthetic peptide (Fmoc SPPS, RP-HPLC purified)
B14: HW18 (peptide)
peptide: Ac-KEAEDLVVEEDVLEEEIEQLEERNYALRKEIKDLQDQ-NH2
notes: linear form of the pair HW18/HW19; NΔ19 CΔ7; source: synthetic peptide (Fmoc SPPS, RP-HPLC purified)
B15: HW13 (peptide)
peptide: Ac-LVVEEDVLEEEIEQLEERNYALRKEIEDLQKQLEDL-NH2
modifications: lactam 31-35
notes: cyclized form of the pair HW12/HW13; NΔ24 CΔ3; source: synthetic peptide (Fmoc SPPS, on-resin lactamization, RP-HPLC purified)
B16: HW17 (peptide)
peptide: Ac-EAEELVVEEDVLEEEIEQLEERNYALRKEIEDLQ-NH2
modifications: lactam 28-32
notes: cyclized form of the pair HW16/HW17; NΔ20 CΔ9; source: synthetic peptide (Fmoc SPPS, on-resin lactamization, RP-HPLC purified)
B17: HW10 (peptide)
peptide: Ac-LVVEEDVLEEEIEQLEEKNKALKDEIEDLQKQLEKLY-NH2
notes: linear form of the pair HW10/HW11; NΔ24 CΔ3 with point mutations for the bridging K and D; source: synthetic peptide (Fmoc SPPS, split batch, RP-HPLC purified)

Columns and labels:
[1] = target: T1, cJun (60 amino acid construct encompassing the entire bZIP domain) (UniProt P05412 252-315); experiment: CD thermal denaturation; peptide (5 μM) with cJun (5 μM); ellipticity at 222 nm, 1°C to 90°C; 20 mM potassium phosphate, 150 mM potassium fluoride, 2 mM TCEP, pH 7.4; two-state fit gives the Tm of the peptide-cJun heterodimer; duplicate experiments; settings: both partners purified
[2] = target: T1, cJun (60 amino acid construct …); experiment: cell-based or functional assay

T1 sequence (P05412 252-315): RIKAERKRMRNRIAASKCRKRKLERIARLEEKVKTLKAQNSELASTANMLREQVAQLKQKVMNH

Binder | Tm of the peptide-cJun heterodimer [1] | IC50 CD: peptide added to pre-incubated cJun (20 μM) and TRE DNA (5 μM); blocks cJun/TRE DNA binding [2]
B1 | 52.5 °C | 118 µM
B2 | 68.5 °C | 16.6 µM
B3 | 57.5 °C | 100 µM
B4 | 54.9 °C | 114 µM
B5 | 59.4 °C | 81.1 µM
B6 | 55.6 °C | 101 µM
B7 | 60.9 °C | 94.4 µM
B8 | 55.5 °C | 98.9 µM
B9 | 56.2 °C | 121 µM
B10 | 58.5 °C | 92.5 µM
B11 | 62.1 °C | 94.6 µM
B12 | 67.2 °C | 73.5 µM
B13 | 53.8 °C | 725 µM
B14 | 56.5 °C | 115 µM
B15 | 68.3 °C | 69 µM
B16 | 57.2 °C | 140 µM
B17 | 64.3 °C | 83.9 µM
